Results on 2 molecules are retold here after patent US11686724B2, “Compositions comprising gamma 9 delta 2 T-cell receptors and methods of use thereof to treat cancer” (Gadeta B.V., priority 2012, dated 2023).

Data set [1] deals with Daudi. The data set is described as follows: IFNγ ELISA of γ9δ2TCR-transduced T-cells against Daudi in the presence of pamidronate. Format: cell-based. The following applies: CD4+ transduced T-cells, pamidronate titration; for IFNγ secretion (max.): FIG. 1B. Further details: IFNγ secretion (max.): unit not given here. The protocol:
(§1) 51Chromium-release assay for cell-mediated cytotoxicity was previously described. Target cells were labeled overnight with 100 μCu 51Cr (150 μCu for primary cells) and incubated for 5 h with transduced T-cells in five effector-to-target ratios (E:T) between 30:1 and 0.3:1. Fold change was calculated when compared to reactivity of engineered T-cells expressing unmutated γ9δ2TCR. IFN-γ ELISpot was performed using anti-hulFN-γmAb1-D1K (I) and mAb7-B6-1 (II) (Mabtech-Hamburg, Germany) following the manufacturer's recommended procedure. Target and effector cells (E:T 3:1) were incubated for 24 h in the presence of pamidronate (Calbiochem, Germany) where indicated. IFNγ ELISA was performed using ELISA-ready-go! Kit (eBioscience) following manufacturer's instructions. Effector and target cells (E:T 1:1) were incubated for 24 h in the presence of pamidronate as indicated. Where specified, fold change was calculated when compared to reactivity of engineered T-cells expressing unmutated γ9δ2TCR.
IFN-γELISA was performed using ELISA-ready-go! Kit (eBioscience) following manufacturers' instructions. Effector and target cells (E:T 1:1) were incubated for 24 h in the presence of pamidronate as indicated. Where specified, fold change was calculated based on IFN-γ secretion γ9-G115wt/6δ-G115wt transduced T-cells normalized to 1; for the side by side experiments based on γ9-3wt/δ9-3wt, γ9-5wt/69-5wt or γ9-G115wt/δ9-G115wt normalized to 1.

Data set [2] deals with Daudi. The data set is described as follows: 51Cr-release assay of γ9δ2TCR-transduced T-cells against Daudi. Format: cell-based. The conditions noted are these: FIG. 1A, E:T 3:1, 5 h. Here is the method: as §1
^51Chromium-release assay for cell-mediated cytotoxicity was previously described (Kuball et al., 2004). […] After 4-6 h ^51Cr-release was measured in the supernatant. Fold change was calculated based on ^51Cr-release of γ9-G115wt/69-G115wt transduced T-cells normalized to 1; for side by side experiments based on γ9-3wt/δ9-3wt, γ9-5wt/δ9-5wt or γ9-G115wt/69-G115wt normalized to 1.

The nature of data set [3]: Allo-reactivity of γ9δ2TCR-transduced T-cells. Format: cell-based.
Data set [4] concerns healthy CD34+ progenitor cells. Description: IFNγ ELISpot against healthy CD34+ progenitor cells. It is filed as cell-based. The conditions noted are these: FIG. 5C. Here is the method: as §1
Mabtech (Hamburg, Germany) following manufactures' recommended procedure (Besold et al., 2007). In all assays target and effector cells (E:T 3:1) were incubated for 24 h in the presence of pamidronate (Calbiochem, Germany) where indicated. […]

For the next data set, the system named is Daudi-luciferase. The data set is described as follows: Daudi-luciferase xenograft in Rag2−/−γc−/− mice, adoptive transfer of engineered T-cells. Format: in vivo. The protocol:
(§2) To induce tumour xenografts, sublethal total body irradiated (2 Gy), 11-17 weeks old RAG-2−/−/yc−/−-BALB/C mice were injected i.v. with 0.5×10^6 Daudi-Luc cells (a kind gift from Genmab Utrecht, The Netherlands) or 5×10^6 RPM I8226/S-Luc cells (Anton Martens, Utrecht, The Netherlands) together with 10^7 γ9δ2TCR+ transduced T-cells. The RAG−2^−/^−yc^−/−-BALB/C mice were originally obtained from AMCAS b.v. (Amsterdam, the Netherlands). Mice were bred and housed in the specific pathogen-free (SPF) breeding unit of the Central Animal Facility of the University of Utrecht. All animal experiments were conducted according to Institutional Guidelines after acquiring permission from the local Ethical Committee for Animal Experimentation, and in accordance with current Dutch laws on Animal Experimentation. All mice developed tumours, mainly growing in the bone marrow visualized in vivo once a week by Biospace bioluminescent imaging. […] Bioluminescence images were acquired using a third generation cooled GaAs intensified charge-coupled device camera, controlled by the Photo Vision software and analyzed with M^3Vision software (all from Photon Imager; Biospace Laboratory). […] Bioluminescence images were acquired and analyzed with M3Vision software (Photon Imager, Biospace Laboratory). […]

The subject of another data set is RPMI8226/S-luciferase. Description: RPMI8226/S-luciferase xenograft in Rag2−/−γc−/− mice, adoptive transfer of engineered T-cells. The conditions noted are these: day 35, n=7, one i.v. injection of 10^7 T-cells. Format: in vivo. Here is the method:
as §2

B1: γ9-cl3/δ2-cl3: wildtype γ9δ2TCR of T-cell clone 3 (SEQ ID 8 and 10) (protein, listed as Homo sapiens)
chain 1: MVSLLHASTLAVLGALCVYGAGHLEQPQISSTKTLSKTARLECVVSGITISATSVYWYRERPGEVIQFLVSISYDGTVRKESGIPSGKFEVDRIPETSTSTLTIHNVEKQDIATYYCALWEEELGKKIKVFGPGTKLIITDKQLDADVSPKPTIFLPSIAETKLQKAGTYLCLLEKFFPDVIKIHWEEKKSNTILGSQEGNTMKTNDTYMKFSWLTVPEKSLDKEHRCIVRHENNKNGVDQEIIFPPIKTDVITMDPKDNCSKDANDTLLLQLTNTSAYYMYLLLLLKSVVYFAIITCCLLRRTAFCCNGEKS
chain 2: MERISSLIHLSLFWAGVMSAIELVPEHQTVPVSIGVPATLRCSMKGEAIGNYYINWYRKTQGNTMTFIYREKDIYGPGFKDNFQGDIDIAKNLAVLKILAPSERDEGSYYCACDLLGYTDKLIFGKGTRVTVEPRSQPHTKPSVFVMKNGTNVACLVKEFYPKDIRINLVSSKKITEFDPAIVISPSGKYNAVKLGKYEDSNSVTCSVQHDNKTVHSTDFEVKTDSTDHVKPKETENTKQPSKSCHKPKAIVHTEKVNMMSLTVLGLRMLFAKTVAVNFLLTAKLFFL
For B1, the “IFNγ secretion (max.)” value with Daudi [1] is listed as 600. Also, in the data set with Daudi [2], the “reduced ability to lyse tumour cells vs control γ9-G115wt/δ2-G115wt” value is on record as 50%.

B2: γ9-G115/δ2-G115: reference γ9δ2TCR of clone G115, γ9 chain SEQ ID NO.1 and δ2 chain SEQ ID NO.2, control (protein, listed as Homo sapiens)
chain 1: MVSLLHASTLAVLGALCVYGAGHLEQPQISSTKTLSKTARLECVVSGITISATSVYWYRERPGEVIQFLVSISYDGTVRKESGIPSGKFEVDRIPETSTSTLTIHNVEKQDIATYYCALWEAQQELGKKIKVFGPGTKLIITDKQLDADVSPKPTIFLPSIAETKLQKAGTYLCLLEKFFPDVIKIHWEEKKSNTILGSQEGNTMKTNDTYMKFSWLTVPEKSLDKEHRCIVRHENNKNGVDQEIIFPPIKTDVITMDPKDNCSKDANDTLLLQLTNTSAYYMYLLLLLKSVVYFAIITCCLLRRTAFCCNGEKS
chain 2: MERISSLIHLSLFWAGVMSAIELVPEHQTVPVSIGVPATLRCSMKGEAIGNYYINWYRKTQGNTMTFIYREKDIYGPGFKDNFQGDIDIAKNLAVLKILAPSERDEGSYYCACDTLGMGGEYTDKLIFGKGTRVTVEPRSQPHTKPSVFVMKNGTNVACLVKEFYPKDIRINLVSSKKITEFDPAIVISPSGKYNAVKLGKYEDSNSVTCSVQHDNKTVHSTDFEVKTDSTDHVKPKETENTKQPSKSCHKPKAIVHTEKVNMMSLTVLGLRMLFAKTVAVNFLLTAKLFFL
Regarding B2, the “IFNγ secretion (max.)” value in the data set on Daudi [1] is 800. In addition, the “IFNγ production (max.)” value in the data set with Daudi [1] (FIG. 1D) was 800 pg/mL. The “allo-reactivity compared to mock-transduced cells” value in data set [3] was “nearly abolished”. The “recognition of CD34+ progenitor cells” value in data set [4] is “not recognized”. Moreover, the “tumour outgrowth by bioluminescence imaging” value with Daudi-luciferase (Daudi, day 42, n=4, one i.v. injection of 10^7 T-cells) turned out to be 180.000 counts/min; in the data set with RPMI8226/S-luciferase, 210.000 counts/min. Besides, the “protection against tumour growth (BLI)” value in the data set on Daudi-luciferase (one T-cell infusion, FIGS. 6A and 6B (Daudi and RPMI8226/S)) is “loss of protection”.
